Source: patent US7544661 (NORTHWESTERN UNIVERSITY, dated 2009)
Ends that are not written are not given here. Asp(CONHC12) = Asp whose side chain is modified with dodecylamine

Molecular target: T1, recombinant human bone morphogenetic protein-2 (human, UniProt P12643 283-396)
Experiment: cell-based or functional assay

T1 sequence (P12643 283-396 limits assumed): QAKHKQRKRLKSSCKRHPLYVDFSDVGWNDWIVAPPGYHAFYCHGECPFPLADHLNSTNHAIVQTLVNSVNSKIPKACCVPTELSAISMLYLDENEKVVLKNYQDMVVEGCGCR

Binder	expression of osteocalcin in mesenchymal stem cells (western blot)
{Asp(CONHC12)}-VVVVVVKKKSGGGYPVHPST (also: reverse polarity: Asp(CONHC12) built on Rink amide resin, end direction unclear) [Asp(CONHC12)-Val-Val-Val-Val-Val-Val-Lys-Lys-Lys-Ser-Gly-Gly-Gly-Tyr-Pro-Val-His-Pro-Ser-Thr (9)]	0.5 ratio (binding gels : no binding gels)

Molecular target: T2, recombinant human transforming growth factor β1 (human, UniProt P01137 279-390)
T2 construct: Bought growth factor (Peprotech), physisorbed on microtiter wells for panning and ELISA; also called rh-TGF-β1; TGF-β1
Experiment: phage ELISA on coated growth factor, anti-M13-HRP; grade of relative binding strength, 1 highest to 4 lowest

T2 sequence (P01137 279-390 limits assumed): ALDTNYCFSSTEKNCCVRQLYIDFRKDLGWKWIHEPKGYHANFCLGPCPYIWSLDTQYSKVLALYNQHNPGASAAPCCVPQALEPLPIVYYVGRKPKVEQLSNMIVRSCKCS

Binder	binding result
RTTSPTA (Tested as M13 phage clone)	binds
VYRHLPT (Tested as M13 phage clone)	binds
LRNYSHS (Tested as M13 phage clone)	binds
GKYPPTS (Tested as M13 phage clone)	binds
PAPRWIH (Tested as M13 phage clone)	binds
LPLGNSH (Tested as M13 phage clone)	binds
LPSPIQK (Tested as M13 phage clone)	binds
RVSTWDT (Tested as M13 phage clone)	binds
AWKSVTA (Tested as M13 phage clone)	binds

Molecular target: T1, recombinant human bone morphogenetic …
Experiment: as above

Binder	binding result
WPALFTH (Tested as M13 phage clone)	binds
PFDPPVR (Tested as M13 phage clone)	binds
PGPTVQG (Tested as M13 phage clone)	binds
KVPPANT (Tested as M13 phage clone)	binds
DVSPAYH (Tested as M13 phage clone)	binds
PIQPDER (Tested as M13 phage clone)	binds
LHYPFMT (Tested as M13 phage clone)	binds
QQTQAQH (Tested as M13 phage clone)	binds

Molecular target: T1, recombinant human bone morphogenetic …
Experiment: fluorescence depolarization

Binder	Ka
YPVHPST	1.9e+06 M⁻¹
KQALTQT	210000 M⁻¹
